Assay results as given in article doi:10.1101/667956 (bioRxiv, 2019).
Changes are numbered by the printed parent chain. Several values for one entry are separate records, joined by “and”; a condition that tells them apart may be missing. Equal entries are not always repeated.

Assays:
[1] = target: the molecule itself; test: SEC-MALS
[2] = target: the molecule itself; test: cross-linking
[3] = target: the molecule itself; test: single-molecule TIRF photobleaching
[4] = target: the molecule itself; test: DLS
[5] = target: the molecule itself; test: SEC-MALS; remark: listed apart in the source
[6] = target: the molecule itself; test: SAXS

B1: synthetic peptide of the Arc oligomerization region (residues 99-132) (peptide)
peptide: QETIANLERWVKREMHVWREVFYRLERWADRLES
[1]
  stoichiometry N: 6

B2: mTurquoise2-fused full-length Arc (1-396), wild type (natural protein)
chain: MELDHMTTGGLHAYPAPRGGPAAKPNVILQIGKCRAEMLEHVRRTHRHLLTEVSKQVERELKGLHRSVGKLENNLDGYVPTGDSQRWKKSIKACLCRCQETIANLERWVKREMHVWREVFYRLERWADRLESMGGKYPVGSEPARHTVSVGVGGPEPYCQEADGYDYTVSPYAITPPPAAGELPEQESVGAQQYQSWVPGEDGQPSPGVDTQIFEDPREFLSHLEEYLRQVGGSEEYWLSQIQNHMNGPAKKWWEFKQGSVKNWVEFKKEFLQYSEGTLSREAIQRELDLPQKQGEPLDQFLWRKRDLYQTLYVDAEEEEIIQYVVGTLQPKFKRFLRHPLPKTLEQLIQRGMEVQDGLEQAAEPSVTPLPTEDETEALTPALTSESVASDRTQPE
[2]
  stoichiometry N: 2 and 3

B3: recombinantly purified rat Arc^s113-119A with an N-terminal SNAP tag and a C-terminal AviTag (natural protein)
chain: B2 chain with M113A, H114A, V115A, W116A, R117A, E118A, V119A
modifications: AlexaFluor488 SNAP substrate on the SNAP tag; C-terminally biotinylated (AviTag)
[3]
  binding result: binds

B4: mTq2-fused full-length Arc^s113-119A (natural protein)
chain: B2 chain with M113A, H114A, V115A, W116A, R117A, E118A, V119A
[2]
  stoichiometry N: 2

B5: mTq2-fused full-length Arc^s92-98A (natural protein)
chain: B2 chain with K92A, C94A, L95A, C96A, R97A, C98A
[2]
  stoichiometry N: 2

B6: purified wild-type human Arc (untagged) (natural protein)
chain: MELDHRTSGGLHAYPGPRGGQVAKPNVILQIGKCRAEMLEHVRRTHRHLLAEVSKQVERELKGLHRSVGKLESNLDGYVPTSDSQRWKKSIKACLCRCQETIANLERWVKREMHVWREVFYRLERWADRLESTGGKYPVGSESARHTVSVGVGGPESYCHEADGYDYTVSPYAITPPPAAGELPGQEPAEAQQYQPWVPGEDGQPSPGVDTQIFEDPREFLSHLEEYLRQVGGSEEYWLSQIQNHMNGPAKKWWEFKQGSVKNWVEFKKEFLQYSEGTLSREAIQRELDLPQKQGEPLDQFLWRKRDLYQTLYVDADEEEIIQYVVGTLQPKLKRFLRHPLPKTLEQLIQRGMEVQDDLEQAAEPAGPHLPVEDEAETLTPAPNSESVASDRTQPE
[4]
  stoichiometry N: 40 to 55 Arc molecules per capsid

B7: purified Arc^s113-119A (untagged) (natural protein)
chain: B6 chain with M113A, H114A, V115A, W116A, R117A, E118A, V119A
[5]
  stoichiometry N: 2

B8: Arc^s113-119A with an N-terminal MBP fusion tag (natural protein)
chain: B6 chain with M113A, H114A, V115A, W116A, R117A, E118A, V119A
[6]
  stoichiometry N: 2
